Measured values from patent US20140087995A1 (published 2014).
Numbered stars: 1 amine (or outer) side, 2 acyl side, 3 side chain; on linkers, the order of the positions; unused ones are H or OH. Bridge positions count the residues as written; N and C are the ends. Side chains are listed from the residue outwards. Ends that are not written are not given here. * marks the point of attachment. C20 diacid = O=C(O)CCCCCCCCCCCCCCCCCCC(=O)*; γGlu = O=C(O)[C@H](CCC(=O)[*:2])N[*:1]

T1: human amylin receptor (amylin 3(a) receptor: human calcitonin receptor plus RAMP-3) (human, UniProt P30988 25-474; O60896 24-148)
T1 sequence (looked up) 1: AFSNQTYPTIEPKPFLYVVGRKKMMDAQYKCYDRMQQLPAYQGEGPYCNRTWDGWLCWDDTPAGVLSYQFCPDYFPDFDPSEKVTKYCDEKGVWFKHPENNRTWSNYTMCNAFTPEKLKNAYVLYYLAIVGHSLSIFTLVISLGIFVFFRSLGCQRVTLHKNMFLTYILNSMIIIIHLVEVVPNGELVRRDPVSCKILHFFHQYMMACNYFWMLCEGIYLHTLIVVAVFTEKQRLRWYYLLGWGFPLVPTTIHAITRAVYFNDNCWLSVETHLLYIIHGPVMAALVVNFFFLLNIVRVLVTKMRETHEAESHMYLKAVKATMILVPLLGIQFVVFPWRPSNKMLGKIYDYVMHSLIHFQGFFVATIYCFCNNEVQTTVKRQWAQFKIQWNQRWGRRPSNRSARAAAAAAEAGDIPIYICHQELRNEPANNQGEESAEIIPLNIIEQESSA
T1 sequence (looked up) 2: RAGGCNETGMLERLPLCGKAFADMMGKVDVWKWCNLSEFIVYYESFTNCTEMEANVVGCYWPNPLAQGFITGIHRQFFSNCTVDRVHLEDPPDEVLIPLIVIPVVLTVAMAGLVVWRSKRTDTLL

T2: human calcitonin receptor (human, UniProt P30988 25-474)
T2 sequence (looked up): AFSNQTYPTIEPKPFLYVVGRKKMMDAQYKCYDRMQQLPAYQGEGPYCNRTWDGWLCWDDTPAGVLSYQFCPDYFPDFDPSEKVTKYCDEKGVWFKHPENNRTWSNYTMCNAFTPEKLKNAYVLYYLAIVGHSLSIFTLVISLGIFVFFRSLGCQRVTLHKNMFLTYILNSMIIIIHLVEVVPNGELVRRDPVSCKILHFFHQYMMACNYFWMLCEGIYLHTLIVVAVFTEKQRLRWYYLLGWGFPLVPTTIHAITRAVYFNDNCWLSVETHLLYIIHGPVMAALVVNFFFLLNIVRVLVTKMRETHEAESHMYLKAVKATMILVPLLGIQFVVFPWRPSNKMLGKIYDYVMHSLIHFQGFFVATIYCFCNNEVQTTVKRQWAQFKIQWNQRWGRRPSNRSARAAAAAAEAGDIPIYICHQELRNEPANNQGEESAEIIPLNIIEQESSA


Columns and labels:
[1] = biological target: T1, human amylin receptor (amylin 3(a) …); assay: cell-based or functional assay
[2] = biological target: T2, human calcitonin receptor; assay: cell-based or functional assay
[3] = biological target: T1, human amylin receptor (amylin 3(a) …); assay: SPA competition binding, displacement of 125I-rat amylin, membranes of BHK amylin 3(a)/CRE-luc cells
In short: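 Membranes from BHK Amylin 3(a)/CRE-luc cells (35 ng/μL final) were mixed with SPA beads and test compounds in 50 mM Hepes pH 7.4 with 1 mM CaCl2, 5 mM MgCl₂, 0.1% OA and 0.02% Tween20. Incubation ran 120 min at 25° C with shaking; IC₅₀ came from one-site competition fitting.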

Binder | Ratio hCT/hAmylin funct. [1] | hAmylin-R funct. EC50 (pM) [1] | hCTR funct. EC50 (pM) [2] | IC50 [3]
K([γGlu-C20 diacid])CNTATCATQRLADFLRHSSPNFGAIPSSTNVGPETY-NH2 (disulfide 2-7; N-terminus assumed; SMILES CC[C@H](C)[C@H](NC(=O)[C@H](C)NC(=O)CNC(=O)[C@H](Cc1ccccc1)NC(=O)[C@H](CC(N)=O)NC(=O)[C@@H]1CCCN1C(=O)[C@H](CO)NC(=O)[C@H](CO)NC(=O)[C@H](Cc1c[nH]cn1)NC(=O)[C@H](CCCNC(=N)N)NC(=O)[C@H](CC(C)C)NC(=O)[C@H](Cc1ccccc1)NC(=O)[C@H](CC(=O)O)NC(=O)[C@H](C)NC(=O)[C@H](CC(C)C)NC(=O)[C@H](CCCNC(=N)N)NC(=O)[C@H](CCC(N)=O)NC(=O)[C@@H](NC(=O)[C@H](C)NC(=O)[C@@H]1CSSC[C@H](NC(=O)[C@@H](N)CCCCNC(=O)CC[C@H](NC(=O)CCCCCCCCCCCCCCCCCCC(=O)O)C(=O)O)C(=O)N[C@@H](CC(N)=O)C(=O)N[C@@H]([C@@H](C)O)C(=O)N[C@@H](C)C(=O)N[C@@H]([C@@H](C)O)C(=O)N1)[C@@H](C)O)C(=O)N1CCC[C@H]1C(=O)N[C@@H](CO)C(=O)N[C@@H](CO)C(=O)N[C@H](C(=O)N[C@@H](CC(N)=O)C(=O)N[C@H](C(=O)NCC(=O)N1CCC[C@H]1C(=O)N[C@@H](CCC(=O)O)C(=O)N[C@H](C(=O)N[C@@H](Cc1ccc(O)cc1)C(N)=O)[C@@H](C)O)C(C)C)[C@@H](C)O) | 3.9 | 288 pM | 1120 pM | 0.196 nM
K([γGlu-C20 diacid])CNTATCATQRLAEFLRHSSPNFGAIPSSTNVGHETY-NH2 (disulfide 2-7; N-terminus assumed; SMILES CC[C@H](C)[C@H](NC(=O)[C@H](C)NC(=O)CNC(=O)[C@H](Cc1ccccc1)NC(=O)[C@H](CC(N)=O)NC(=O)[C@@H]1CCCN1C(=O)[C@H](CO)NC(=O)[C@H](CO)NC(=O)[C@H](Cc1c[nH]cn1)NC(=O)[C@H](CCCNC(=N)N)NC(=O)[C@H](CC(C)C)NC(=O)[C@H](Cc1ccccc1)NC(=O)[C@H](CCC(=O)O)NC(=O)[C@H](C)NC(=O)[C@H](CC(C)C)NC(=O)[C@H](CCCNC(=N)N)NC(=O)[C@H](CCC(N)=O)NC(=O)[C@@H](NC(=O)[C@H](C)NC(=O)[C@@H]1CSSC[C@H](NC(=O)[C@@H](N)CCCCNC(=O)CC[C@H](NC(=O)CCCCCCCCCCCCCCCCCCC(=O)O)C(=O)O)C(=O)N[C@@H](CC(N)=O)C(=O)N[C@@H]([C@@H](C)O)C(=O)N[C@@H](C)C(=O)N[C@@H]([C@@H](C)O)C(=O)N1)[C@@H](C)O)C(=O)N1CCC[C@H]1C(=O)N[C@@H](CO)C(=O)N[C@@H](CO)C(=O)N[C@H](C(=O)N[C@@H](CC(N)=O)C(=O)N[C@H](C(=O)NCC(=O)N[C@@H](Cc1c[nH]cn1)C(=O)N[C@@H](CCC(=O)O)C(=O)N[C@H](C(=O)N[C@@H](Cc1ccc(O)cc1)C(N)=O)[C@@H](C)O)C(C)C)[C@@H](C)O, also called compound 107) | 6.3 | 405 pM | 2540 pM | 0.387 nM
K([γGlu-C20 diacid])CNTATCATQRLAEFLRHSSPNFGAIPSSTNVGSHTY-NH2 (disulfide 2-7; N-terminus assumed; SMILES CC[C@H](C)[C@H](NC(=O)[C@H](C)NC(=O)CNC(=O)[C@H](Cc1ccccc1)NC(=O)[C@H](CC(N)=O)NC(=O)[C@@H]1CCCN1C(=O)[C@H](CO)NC(=O)[C@H](CO)NC(=O)[C@H](Cc1c[nH]cn1)NC(=O)[C@H](CCCNC(=N)N)NC(=O)[C@H](CC(C)C)NC(=O)[C@H](Cc1ccccc1)NC(=O)[C@H](CCC(=O)O)NC(=O)[C@H](C)NC(=O)[C@H](CC(C)C)NC(=O)[C@H](CCCNC(=N)N)NC(=O)[C@H](CCC(N)=O)NC(=O)[C@@H](NC(=O)[C@H](C)NC(=O)[C@@H]1CSSC[C@H](NC(=O)[C@@H](N)CCCCNC(=O)CC[C@H](NC(=O)CCCCCCCCCCCCCCCCCCC(=O)O)C(=O)O)C(=O)N[C@@H](CC(N)=O)C(=O)N[C@@H]([C@@H](C)O)C(=O)N[C@@H](C)C(=O)N[C@@H]([C@@H](C)O)C(=O)N1)[C@@H](C)O)C(=O)N1CCC[C@H]1C(=O)N[C@@H](CO)C(=O)N[C@@H](CO)C(=O)N[C@H](C(=O)N[C@@H](CC(N)=O)C(=O)N[C@H](C(=O)NCC(=O)N[C@@H](CO)C(=O)N[C@@H](Cc1c[nH]cn1)C(=O)N[C@H](C(=O)N[C@@H](Cc1ccc(O)cc1)C(N)=O)[C@@H](C)O)C(C)C)[C@@H](C)O) |  | 425 pM | 5580 pM | 0.992 nM
K([γGlu-C20 diacid])CNTATCATQRLAEFLRHSSPNFGAIPSSTNVGRETY-NH2 (disulfide 2-7; N-terminus assumed; SMILES CC[C@H](C)[C@H](NC(=O)[C@H](C)NC(=O)CNC(=O)[C@H](Cc1ccccc1)NC(=O)[C@H](CC(N)=O)NC(=O)[C@@H]1CCCN1C(=O)[C@H](CO)NC(=O)[C@H](CO)NC(=O)[C@H](Cc1c[nH]cn1)NC(=O)[C@H](CCCNC(=N)N)NC(=O)[C@H](CC(C)C)NC(=O)[C@H](Cc1ccccc1)NC(=O)[C@H](CCC(=O)O)NC(=O)[C@H](C)NC(=O)[C@H](CC(C)C)NC(=O)[C@H](CCCNC(=N)N)NC(=O)[C@H](CCC(N)=O)NC(=O)[C@@H](NC(=O)[C@H](C)NC(=O)[C@@H]1CSSC[C@H](NC(=O)[C@@H](N)CCCCNC(=O)CC[C@H](NC(=O)CCCCCCCCCCCCCCCCCCC(=O)O)C(=O)O)C(=O)N[C@@H](CC(N)=O)C(=O)N[C@@H]([C@@H](C)O)C(=O)N[C@@H](C)C(=O)N[C@@H]([C@@H](C)O)C(=O)N1)[C@@H](C)O)C(=O)N1CCC[C@H]1C(=O)N[C@@H](CO)C(=O)N[C@@H](CO)C(=O)N[C@H](C(=O)N[C@@H](CC(N)=O)C(=O)N[C@H](C(=O)NCC(=O)N[C@@H](CCCNC(=N)N)C(=O)N[C@@H](CCC(=O)O)C(=O)N[C@H](C(=O)N[C@@H](Cc1ccc(O)cc1)C(N)=O)[C@@H](C)O)C(C)C)[C@@H](C)O) | 6.5 | 421 pM | 2740 pM | 0.232 nM

These reach a lower IC50 [3]. Values come first.

Ratio hCT/hAmylin funct. [1] | hAmylin-R funct. EC50 (pM) [1] | hCTR funct. EC50 (pM) [2] | IC50 [3] | Binder
 | 101 pM | 1450 pM | 0.179 nM | K([γGlu-C20 diacid])CNTATCATQRLAEFLRHSSPNFGAIPSSTNVGPHTY-NH2 (disulfide 2-7)
5.2 | 161 pM | 841 pM | 0.14 nM | K([γGlu-C20 diacid])CNTATCATQRLAEFLRHSSPNFGAIPSSTNVGPETY-NH2 (disulfide 2-7; N-terminus assumed; SMILES CC[C@H](C)[C@H](NC(=O)[C@H](C)NC(=O)CNC(=O)[C@H](Cc1ccccc1)NC(=O)[C@H](CC(N)=O)NC(=O)[C@@H]1CCCN1C(=O)[C@H](CO)NC(=O)[C@H](CO)NC(=O)[C@H](Cc1c[nH]cn1)NC(=O)[C@H](CCCNC(=N)N)NC(=O)[C@H](CC(C)C)NC(=O)[C@H](Cc1ccccc1)NC(=O)[C@H](CCC(=O)O)NC(=O)[C@H](C)NC(=O)[C@H](CC(C)C)NC(=O)[C@H](CCCNC(=N)N)NC(=O)[C@H](CCC(N)=O)NC(=O)[C@@H](NC(=O)[C@H](C)NC(=O)[C@@H]1CSSC[C@H](NC(=O)[C@@H](N)CCCCNC(=O)CC[C@H](NC(=O)CCCCCCCCCCCCCCCCCCC(=O)O)C(=O)O)C(=O)N[C@@H](CC(N)=O)C(=O)N[C@@H]([C@@H](C)O)C(=O)N[C@@H](C)C(=O)N[C@@H]([C@@H](C)O)C(=O)N1)[C@@H](C)O)C(=O)N1CCC[C@H]1C(=O)N[C@@H](CO)C(=O)N[C@@H](CO)C(=O)N[C@H](C(=O)N[C@@H](CC(N)=O)C(=O)N[C@H](C(=O)NCC(=O)N1CCC[C@H]1C(=O)N[C@@H](CCC(=O)O)C(=O)N[C@H](C(=O)N[C@@H](Cc1ccc(O)cc1)C(N)=O)[C@@H](C)O)C(C)C)[C@@H](C)O)
